# Measured values as given in patent US20160138094, “Direct, Programmable Detection of Epigenetic DNA Cytosine Modifications using TAL Effectors” (UNIVERSITÄt KONSTANZ, published 2016).
# Columns and labels:
# [1] = target: T1, TALE_97 (HD at repeat 5 opposite C6) (Xanthomonas axonopodis pv. citri …, UniProt B2SU53); experiment: EMSA; Tris, NaCl, MgCl2, salmon sperm DNA, room temperature; settings: tags: N-terminal thioredoxin and S-tag, C-terminal His6; label: 5'-32P on reverse strand
# Source text: Oligonucleotides 97_C2/5/6/11/12/14 mC_rev (SEQ ID NO: 5) and 97_T3/4/8/9/10/16 mC_rev (SEQ ID NO: 8) were 5′-³²P-end labeled using γ-³²P-ATP and T4 polynucleotide kinase (Fermentas) and purified using a G-25 gel filtration column (GE Healthcare). Oligonucleotides were hybridized pairwise (97/97_C2/5/6/11/12/14 mC_rev (SEQ ID NO: 3/SEQ ID NO: 5); 97_C2/5/6/11/12/14 mC/97_C2/5/6/11/12/14 mC_rev (SEQ ID NO: 4/SEQ ID NO: 5); 97_T3/4/8/9/10/16 C/97_T3/4/8/9/10/16 mC_rev (SEQ ID NO: 6/SEQ ID NO: 8); 97_T3/4/8/9/10/16 mC/97_T3/4/8/9/10/16 mC_rev (SEQ ID NO: 7/SEQ ID NO: 8)) at a concentration of 12.5 nM, respectively, by incubating at 95° C. for 5 min and subsequently at room temperature for 30 min in Hybridization buffer (40 mM Tris-HCl (pH=8.0), 100 mM NaCl, 10 mM MgCl₂, 100 ng/μl salmon sperm DNA (Ambion), 0.2 mg/ml BSA, 10% glycerol). For TALE-binding, to 6 μL of the hybridized DNA duplexes, 6 μL of TALE storage buffer (20 mM Tris-HCl pH=7.5, 200 mM NaCl, 10% Glycerol, 1 mM DTT) with varying concentrations of TALE proteins were added and mixtures were incubated at room temperature for 30 min. Mixtures were loaded onto an analytical, non-denaturing PAGE-gel (0.5 mm, 50 cm length) that was run in 0.25×TB buffer at 12 W and room temperature. Gel was dried and data recorded on a phosphorimager.
# [2] = target: T1, TALE_97 (HD at repeat 5 opposite C6); experiment: inhibition; inhibition of Klenow exo- primer extension, MgCl2, room temperature; settings: tags: N-terminal thioredoxin and S-tag, C-terminal His6; label: 5'-32P on primer; 5' overhang template with primer duplex at template 3' end
# Method: Templates as shown in FIG. 2 (SEQ ID NOs: 9 to 14) and primer p97_rev (SEQ ID NO: 15; 5′-³²P-end labeled as above) were diluted from 5× stocks (500 nM and 166.5 nM, respectively) into 6 μL Hybridization buffer (40 mM Tris-HCl (pH 8.0), 100 mM NaCl, 10 mM MgCl₂, 0.2 mg/ml BSA, 10% glycerol) to final concentrations of 100 nM and 33.3 nM and hybridized by incubating at 95° C. for 5 min and subsequently at room temperature for 30 min. TALE proteins with various RVDs at position 5 were added in 6 μL TALE storage buffer (200 mM NaCl, 20 mM Tris-HCl (pH 7.5), 1 mM DTT, 10% glycerol) at varying concentrations and mixtures were incubated at room temperature for 30 min. 12 μL of a mixture of 25 mU Klenow Fragment of E. coli DNA polymerase I (3′-5′-exo⁻, New England Biolabs) and 200 μM of each dNTP in Binding buffer (30 mM Tris-HCl (pH 8.0), 150 mM NaCl, 5 mM MgCl₂, 0.1 mg/ml BSA, 0.5 mM DTT, 7.5% glycerol) were added, resulting in final concentrations of 8.325 nM and 25 nM for primer and template, respectively. These mixtures were incubated at room temperature for additional 15 min. 12 μL of PAGE loading buffer (80% formamide, 2 mM EDTA) were added, the mixtures were incubated at 95° C. for 5 min and cooled to 4° C. […] Gel was dried and data recorded on a phosphorimager. […]
Binder,binding result [1],IC50 [2]
97 / 97_C2/5/6/11/12/14mC_rev duplex (dsDNA) DNA 1: AGACGGCATACGATCTTCCGTTTCCACATCCACCACATCCCAACAGAGCAGCGGGAGCAGCAGTAAAGATCGGAAGAGC DNA 2: GCTCTTCCGATCTTTACTGCTGCTCCCGCTGCTCTGTTGGGATGTGGTGGATGTGGAAACGGAAGATCGTATGCCGTCT,binds,–
t97 template / p97_rev primer (dsDNA) DNA 1: TGGATTCCCACTCTTCAGCCCCAGCGTTACAGCATCTTCAGTGGCTTCTTCCACCGTGAGCTCTTCCGTTTCCACATCC DNA 2: GGATGTGGAAACGGAAGA,–,0.106 µM
